# Results: US20230183289A1 (ANPEP, published 2023)
# Target: elastase (type I: derived from porcine pancreas, Sigma Aldrich) (porcine, UniProt P00772 27-266)
# Test: cell-based or functional assay
# elastase (type I: derived from porcine pancreas, Sigma Aldrich), sequence (P00772 27-266 limits assumed): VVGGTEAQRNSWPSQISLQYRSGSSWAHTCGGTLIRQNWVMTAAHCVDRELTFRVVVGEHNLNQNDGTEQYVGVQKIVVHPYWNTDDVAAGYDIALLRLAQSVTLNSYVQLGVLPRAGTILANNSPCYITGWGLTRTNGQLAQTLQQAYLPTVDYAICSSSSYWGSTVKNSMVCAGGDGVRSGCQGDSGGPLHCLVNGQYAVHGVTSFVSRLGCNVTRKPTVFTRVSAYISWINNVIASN
row,Binder,Elastase Inhibition Rate (%)
1,FSSG [Sample 22 tetrapeptide FSSG],69.1
2,KTSG [Sample 7 tetrapeptide KTSG],44.5
3,QPSY [Sample 15 tetrapeptide QPSY],63.5
4,LEVP [Sample 31 tetrapeptide LEVP],70.6
5,GCFS [Sample 20 tetrapeptide GCFS],55.2
6,SQQV [Sample 12 tetrapeptide SQQV],49.3
7,GYVS [Sample 11 tetrapeptide GYVS],78.5
8,EHQE [Sample 29 tetrapeptide EHQE],66.3
9,EVQW [Sample 42 tetrapeptide EVQW],49.5
10,VKTS [Sample 6 tetrapeptide VKTS],66.3
11,QLKY [Sample 35 tetrapeptide QLKY],60.5
12,VEHQ [Sample 40 tetrapeptide VEHQ],55.7
13,GQLK [Sample 27 tetrapeptide GQLK],56
14,ELPE [Sample 24 tetrapeptide ELPE],90.5
15,LELP [Sample 26 tetrapeptide LELP],78.2
16,GSGY [Sample 9 tetrapeptide GSGY],56.3
17,QQKQ [Sample 41 tetrapeptide QQKQ],72.3
18,PEEQ [Sample 32 tetrapeptide PEEQ],64
19,TQTS [Sample 13 tetrapeptide TQTS],59
20,SGGS [Sample 8 tetrapeptide SGGS],49.6

row,Binder,Elastase Inhibition Rate (%)
1,GQLE [Sample 23 tetrapeptide GQLE],73.2
2,YLEQ [Sample 36 tetrapeptide YLEQ],72.3
3,CAPQ [Sample 14 tetrapeptide CAPQ],77.2
4,CFSS [Sample 21 tetrapeptide CFSS],47.4
5,QMGQ [Sample 33 tetrapeptide QMGQ],55.6
6,MSYQ [Sample 1 tetrapeptide MSYQ],79.4
7,YGGG [Sample 16 tetrapeptide YGGG],67.1
8,QKKQ [Sample 2 tetrapeptide QKKQ],88.7
9,PPVD [Sample 4 tetrapeptide PPVD],72.5
10,VLLP [Sample 39 tetrapeptide VLLP],60.7
11,GGSG [Sample 18 tetrapeptide GGSG],104
12,GQDP [Sample 34 tetrapeptide GQDP],34.5
13,DCVK [Sample 5 tetrapeptide DCVK],118
14,PTPQ [Sample 3 tetrapeptide PTPQ],69.3
15,GQVS [Sample 10 tetrapeptide GQVS],33.9
16,SSGG [Sample 17 tetrapeptide SSGG],77
17,KHLE [Sample 28 tetrapeptide KHLE],79.3
18,EGQL [Sample 30 tetrapeptide EGQL],69.7
19,GSSG [Sample 19 tetrapeptide GSSG],58.3
20,TKGE [Sample 38 tetrapeptide TKGE],59.3
